Experimental data: patent publication US20240076381A1
pKd: −log10 of the molar value.

Molecular target: FcRn-µ2m fusion protein (human β2m fused by (Gly4Ser)3 to the extracellular domain of human FcRn, His-tagged) (human) (UniProt P61769)
Test: ELISA on coated FcRn-β2m fusion, pH 6; KD estimated by saturation binding fit

Sequence of UniProt P61769 (P61769 other isoform, or with tags, fused parts or gaps limits assumed): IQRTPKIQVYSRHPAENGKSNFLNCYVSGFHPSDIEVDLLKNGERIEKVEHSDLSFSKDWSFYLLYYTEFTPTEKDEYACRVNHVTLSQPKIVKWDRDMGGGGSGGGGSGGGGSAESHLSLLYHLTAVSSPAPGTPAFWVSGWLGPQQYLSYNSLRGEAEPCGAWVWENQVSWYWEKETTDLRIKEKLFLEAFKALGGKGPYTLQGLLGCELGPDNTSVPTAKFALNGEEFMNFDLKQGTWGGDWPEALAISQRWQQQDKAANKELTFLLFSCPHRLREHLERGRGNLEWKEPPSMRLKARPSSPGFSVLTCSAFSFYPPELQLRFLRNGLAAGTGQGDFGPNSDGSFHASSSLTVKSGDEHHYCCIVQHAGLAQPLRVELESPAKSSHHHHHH

Work on Trastuzumab IgG (antibody) yielded a pKd of 6.05.
